Results from patent US6723841.
Bridge positions count the residues as written; N and C are the ends. Ends that are not written are not given here.

T1: human CRF2α receptor (human) (UniProt Q13324)
T1 sequence: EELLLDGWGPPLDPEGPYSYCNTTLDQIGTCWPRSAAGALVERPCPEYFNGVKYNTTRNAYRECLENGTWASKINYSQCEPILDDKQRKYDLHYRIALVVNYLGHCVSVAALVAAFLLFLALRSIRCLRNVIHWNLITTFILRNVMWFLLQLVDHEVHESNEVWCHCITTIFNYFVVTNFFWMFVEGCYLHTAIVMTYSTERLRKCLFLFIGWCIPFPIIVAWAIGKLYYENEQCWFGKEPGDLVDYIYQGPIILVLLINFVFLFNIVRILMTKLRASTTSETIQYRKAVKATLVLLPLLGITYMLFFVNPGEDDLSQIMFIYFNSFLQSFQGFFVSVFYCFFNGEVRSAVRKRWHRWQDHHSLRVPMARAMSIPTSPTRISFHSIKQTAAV


Key:
Assay in all cases: cell-based or functional assay
[1] = biological target: human CRF1 receptor (human) (UniProt P34998)
Chain of human CRF1 receptor (human) (P34998 24-415): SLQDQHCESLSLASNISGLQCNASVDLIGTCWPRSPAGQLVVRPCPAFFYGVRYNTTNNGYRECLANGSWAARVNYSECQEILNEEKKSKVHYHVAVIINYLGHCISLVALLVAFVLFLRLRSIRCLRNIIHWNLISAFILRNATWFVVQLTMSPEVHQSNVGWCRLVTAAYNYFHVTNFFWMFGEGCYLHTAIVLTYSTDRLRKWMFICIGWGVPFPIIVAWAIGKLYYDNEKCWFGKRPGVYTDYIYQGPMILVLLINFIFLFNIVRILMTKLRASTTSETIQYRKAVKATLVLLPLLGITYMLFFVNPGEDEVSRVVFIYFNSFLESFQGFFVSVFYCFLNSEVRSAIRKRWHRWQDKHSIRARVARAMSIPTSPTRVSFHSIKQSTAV

[2] = biological target: T1, human CRF2α receptor (human)
rat CRF2β receptor (rat) = biological target: rat CRF2β receptor (rat)

Binder | EC50 of adenylate cyclase stimulation (cAMP) [1] [nM] | EC50 of adenylate cyclase stimulation (cAMP) [2] [nM] | EC50 of adenylate cyclase stimulation (cAMP) (rat CRF2β receptor (rat)) [nM]
ISLDLTFHLLREVLEMARAEQLAQQAHS (peptide, UniProt P06850 159-186, looked up) [r/hCRF(6-33)] | > 1000 | > 1000 | 
YADAIFTNSYRKVLGQLSARKLLQDIMSRQQGESNQERGARARL (peptide, UniProt P01286 32-75, looked up, ends and bridges not checked) [hGRF] | > 1000 | > 1000 | 
SEEPPISLDLTFHLLREVLEMARAEQLAQQAHSNRKLMEII (peptide, UniProt P06850 154-194, looked up) [rat/human CRF] | 4 | 20 | 1
CYFQNCPRG-NH2 (peptide, UniProt P01185 20-28, looked up, species assumed, disulfide 1-6; ends not checked) [AVP] | > 1000 | > 1000 | 
FHLLREVLEMARAEQLAQQAHSNRKLMEII (peptide, UniProt P06850 165-194, looked up, d-Phe (position not given)) [d-Phe r/hCRF(12-41)] | > 1000 | > 1000 | 
SQEPPISLDLTFHLLREVLEMTKADQLAQQAHNNRKLLDIA-OH (peptide, UniProt Q95MI6 148-188, looked up) [deamidated bovine CRF] | 1000 | > 1000 | 
HSDAVFTDNYTRLRKQMAVKKYLNSILN (peptide, UniProt P01282 125-152, looked up, species assumed, ends and bridges not checked) [VIP] | > 1000 | > 1000 | 
QGPPISIDLSLELLRKMIEIEKQEKEKQQAANNRLLLDTI (peptide, UniProt P01144 1-40, looked up) [Sauvagine] | 3 | 0.5 | 0.4
SQEPPISLDLTFHLLREVLEMTKADQLAQQAHSNRKLLDIA (peptide, UniProt P01142 148-188, looked up, ends and bridges not checked) [ovine CRF] | 10 | 80 | 
SQEPPISLDLTFHLLREVLEMTKADQLAQQAHNNRKLLDIA (peptide, UniProt Q95MI6 148-188, looked up) [bovine CRF] | 30 | 100 | 
